This note sets out measurements from FireProtDB (doi:10.1021/bi982078m).

For the data set the following is noted: Aspergillus oryzae (strain ATCC 42149 / RIB 40), pH 3, 25 °C, Absorbance, glycine-HCl 0.05 M, reversible: yes, whole UniProt chain shown.

B1: Guanyl-specific ribonuclease T1 wild type, P00651 (protein)
chain: MMYSKLLTLTTLLLPTALALPSLVERACDYTCGSNCYSSSDVSTAQAAGYQLHEDGETVGSNSYPHKYNNYEGFDFSVSSPYYEWPILSSGDVYSGGSPGADRVVFNENNQLAGVITHTGASGNNFVECT
In the case of B1, the denaturant m value was 2.83 kcal/mol/M (GdnHCl, KCl 0.1-1.0 M); 1.98 kcal/mol/M (Urea, KCl 0.10 M); 1.71 kcal/mol/M (Urea, KCl 0.50 M); 1.59 kcal/mol/M (Urea, KCl 1.00 M); 1.65 kcal/mol/M (Urea, KCl 1.25 M); 1.54 kcal/mol/M (Urea, KCl 1.50 M). Besides, the “denaturant midpoint (higher = more stable)” value was determined as 1.78 M (GdnHCl, KCl 0.1-1.0 M); 2.05 M (Urea, KCl 0.10 M); 2.4 M (Urea, KCl 0.50 M); 2.82 M (Urea, KCl 1.00 M); 3.02 M (Urea, KCl 1.25 M); 3.41 M (Urea, KCl 1.50 M). Further, the unfolding free energy (GdnHCl, KCl 0.1-1.0 M) came to 21 kJ/mol; the unfolding free energy (Urea, KCl 0.10 M) stood at 17 kJ/mol; the unfolding free energy (Urea, KCl 0.50 M) turned out to be 17.2 kJ/mol; the unfolding free energy (Urea, KCl 1.00 M) was 18.8 kJ/mol; the unfolding free energy (Urea, KCl 1.25 M) is 20.9 kJ/mol; the unfolding free energy (Urea, KCl 1.50 M) is 22 kJ/mol.
